Positions of bridges follow the written chain, without caps; N, C: chain ends. Non-standard residues stand in square brackets, D forms with d. Re(V)O = rhenium(V) oxo core coordinated by cysteine thiolates and amide nitrogens
Tests used:
[1] = biological target: T1, α-MSH receptor on B16-F1 murine melanoma cells (murine, UniProt Q01727 1-315); test: competitive receptor binding on B16-F1 murine melanoma cells, displacement of ^125I-[Nle4, D-Phe7]-α-MSH, 4° C., 8 hours
T1 construct: whole, on cells; also called α-melanotropin (α-MSH) receptors; melanotropin receptors
T1 sequence (Q01727 whole entry): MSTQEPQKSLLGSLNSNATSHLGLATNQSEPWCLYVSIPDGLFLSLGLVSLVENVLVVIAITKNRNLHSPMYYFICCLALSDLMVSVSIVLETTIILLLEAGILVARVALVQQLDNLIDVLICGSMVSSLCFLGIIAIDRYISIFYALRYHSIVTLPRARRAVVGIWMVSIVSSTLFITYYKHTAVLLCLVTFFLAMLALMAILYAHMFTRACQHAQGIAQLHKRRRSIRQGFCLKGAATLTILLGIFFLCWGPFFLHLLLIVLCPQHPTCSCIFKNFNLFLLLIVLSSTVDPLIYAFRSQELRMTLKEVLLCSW
Method: (§1) Quantitative receptor binding assays were carried out following a previously described method (Siegrist W., 1988; Sahm, U. G., 1994). […] The cells were rinsed with PBS, lysed with 1 M NaOH and counted in a 1275 minigamma gamma counter from LKB Wallac.
The bioactivities of APOMSH and the ReMSH complex were assayed by measuring stimulation of melanin production by B16-F1 murine melanoma cells. The $EC50$ values for melanin synthesis by APOMSH and ReMSH were 2.6 ×10^-11 and 5.4 ×10^-10, respectively. […] Receptor binding assays were performed with APOMSH and ReMSH on B16-F1 murine melanoma cells.

[2] = biological target: T1, α-MSH receptor on B16-F1 murine …; test: cell-based or functional assay
[3] = biological target: T1, α-MSH receptor on B16-F1 murine …; test: cell-based or functional assay; remark: listed apart in the source
[4] = biological target: T1, α-MSH receptor on B16-F1 murine …; test: competitive receptor binding on B16-F1 murine melanoma cells
Method: as §1
The ^99mTc- and ^188Re-labeled analogs of ReCCMSH were virtually inert to substitution in 10 mM Cys competition assays, while the ^99mTc- and ^188Re-labeled analogs of ReMSH were readily exchanged under the same assay conditions (Table 2). This increased stability of ReCCMSH probably resulted from the presence of an additional sulfur donor atom and from decreased backbone strain in the molecule due to the increased ring size. […] The ability of the ReCCMSH analog to stimulate melanin production was almost identical to APOMSH (Table 3).

Row | Ki [1] [nM] | EC50 (M), melanin production by B16-F1 murine melanoma cells [2] [M] | fold decrease in the ability to stimulate melanin production compared to APOMSH [3] [fold] | fold decrease in receptor binding affinity compared to APOMSH [4] [fold] | fold higher receptor binding affinity than ReMSH [4] [fold] | Binder
1 | 0.68 | 2.6e-11 | – | – | – | Ac-CEH[dF]RWCKPV-NH2 (disulfide 1-7; SMILES CC(=O)N[C@H]1CSSC[C@@H](C(=O)N[C@@H](CCCCN)C(=O)N2CCC[C@H]2C(=O)N[C@H](C(N)=O)C(C)C)NC(=O)[C@H](Cc2c[nH]c3ccccc23)NC(=O)[C@H](CCCNC(=N)N)NC(=O)[C@@H](Cc2ccccc2)NC(=O)[C@H](Cc2c[nH]cn2)NC(=O)[C@H](CCC(=O)O)NC1=O, Synthetic cyclic α-MSH analog without metal; starting peptide for ReMSH; also called metal-free peptide) [Cys^4,10, D-Phe^7-α-MSH4-13 (APOMSH)]
2 | 66 | 5.4e-10 | ~20 | ~100 | – | CEHFRWCKPV (not fully specified; N-terminal acetyl; D-Phe at position 7 (α-MSH numbering); C-terminal amide; cyclized by a Re(V)O core coordinated by the thiolate sulfurs of Cys4 and Cys10 and the amide nitrogens of Trp9 and Cys10, Nonradioactive rhenium complex of APOMSH; also called rhenium α MSH analog ReMSH; ReMSH complex) [ReMSH]
3 | 2.9 | 3.5e-11 | – | – | ~25 | Ac-CCEH[dF]RWCKPV-NH2 (bridge 1-2-8 via Re(V)O; not fully specified; printed as NAc-Cys-Cys-Glu-His-D-Phe-Arg-Trp-Cys-Lys-Pro-Val-NH2; also: Re(V)O complex via thiolates of Cys3, Cys4, Cys10 and amide N of Cys4, Nonradioactive rhenium complex of the APOMSH analog with an additional N-terminal Cys (Cys3); also called ReCCMSH analog) [ReCCMSH]

From patent US6607709 (CURATORS OF THE UNIVERSITY OF MISSOURI, dated 2003)
